Measured values from publication doi:10.1101/2024.08.16.608256 (bioRxiv, 2024).

B1: YqjD (wild type, full-length, N-terminal Xpress-His6-tag) (natural protein, E. coli, UniProt P64581 1-101, looked up)
chain: MSKEHTTEHLRAELKSLSDTLEEVLSSSGEKSKEELSKIRSKAEQALKQSRYRLGETGDAIAKQTRVAAARADEYVRENPWTGVGIGAAIGVVLGVLLSRR
B2: ΔN(12)-YqjD (domain or fragment, E. coli, UniProt P64581 13-101, looked up)
chain: ELKSLSDTLEEVLSSSGEKSKEELSKIRSKAEQALKQSRYRLGETGDAIAKQTRVAAARADEYVRENPWTGVGIGAAIGVVLGVLLSRR
B3: ΔN(30)-YqjD (domain or fragment, E. coli, UniProt P64581 31-101, looked up)
chain: KSKEELSKIRSKAEQALKQSRYRLGETGDAIAKQTRVAAARADEYVRENPWTGVGIGAAIGVVLGVLLSRR
B4: ΔN(45)-YqjD (domain or fragment, E. coli, UniProt P64581 46-101, looked up)
chain: ALKQSRYRLGETGDAIAKQTRVAAARADEYVRENPWTGVGIGAAIGVVLGVLLSRR
B5: ΔN(60)-YqjD (domain or fragment, E. coli, UniProt P64581 61-101, looked up)
chain: IAKQTRVAAARADEYVRENPWTGVGIGAAIGVVLGVLLSRR

Biological target: the molecule itself
Assay: SDS-resistant dimer on SDS-PAGE with western blot

Protein | stoichiometry N | binding result
B1 | 2 | 
B2 |  | binds
B3 |  | binds
B4 |  | binds
B5 |  | binds
